Patent US11419945B2, “Antigen binding proteins” (Glaxo Group Limited, priority 2011, dated 2022)
Values belong to the molecule of their own block, whether it stands above or below them.

Experiments:
Assay type in all cases: binding
[1] = target: T1, Human commercial BCMA (Homo sapiens, UniProt Q02223); assay: BIAcore analysis J7 to J9 series, human commercial BCMA; settings: 37° C.; for ka: in M-1s-1 (unit assumed); for kd: in s-1 (unit assumed)
T1 construct: purchased US Biological B0410
T1 sequence (Q02223 1-184): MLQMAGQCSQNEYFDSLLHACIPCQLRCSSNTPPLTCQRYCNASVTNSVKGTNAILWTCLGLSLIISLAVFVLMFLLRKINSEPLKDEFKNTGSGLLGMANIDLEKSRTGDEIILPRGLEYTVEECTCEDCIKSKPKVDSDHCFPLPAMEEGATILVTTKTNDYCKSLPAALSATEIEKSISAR
Protocol: Protein A was immobilised on a CMS chip (GE Healthcare, Cat No: BR-1005-30) by primary amine coupling and this surface was then used to capture the antibody molecules. Recombinant human BCMA (US Biological, B0410) was used as analyte at 256 nM, 64 nM, 16 nM, 4 nM and 1 nM. Regeneration of the capture surface was carried out using 50 mM NaOH. All binding curves were double referenced with a buffer injection (i.e. 0 nM) and the data was fitted to the using the 1:1 model inherent to T100 evaluation software. The run was carried out at 37° C., using HBS-EP as the running buffer.

[2] = system: Cyno in house BCMA; assay: BIAcore analysis J7 to J9 series, cyno in house BCMA; settings: 37° C.; for ka: in M-1s-1 (unit assumed); for kd: in s-1 (unit assumed)
Chain of Cyno in house BCMA (as listed by the source): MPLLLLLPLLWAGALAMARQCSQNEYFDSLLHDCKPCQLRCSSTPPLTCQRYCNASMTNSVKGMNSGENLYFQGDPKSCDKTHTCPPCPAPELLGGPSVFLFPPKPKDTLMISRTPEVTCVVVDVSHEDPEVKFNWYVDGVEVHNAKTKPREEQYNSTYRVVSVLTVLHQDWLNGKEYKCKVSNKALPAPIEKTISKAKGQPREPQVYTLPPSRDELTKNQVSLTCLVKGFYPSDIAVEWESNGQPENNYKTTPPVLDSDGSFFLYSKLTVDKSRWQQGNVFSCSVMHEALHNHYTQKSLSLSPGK

[3] = target: T2, Human in house BCMA (Homo sapiens, UniProt Q02223); assay: ProteOn analysis of CA8 chimeric and humanised constructs, human in house BCMA; settings: for off rate: Run 2, ProteOn, recombinant human BCMA, no affinity values obtained; for ka: in M-1s-1 (unit assumed); for kd: in s-1 (unit assumed)
T2 construct: CD33 signal peptide (N); TEV site (internal); Fc (C); made in house
T2 sequence (Q02223 with tags, fused parts or gaps limits assumed): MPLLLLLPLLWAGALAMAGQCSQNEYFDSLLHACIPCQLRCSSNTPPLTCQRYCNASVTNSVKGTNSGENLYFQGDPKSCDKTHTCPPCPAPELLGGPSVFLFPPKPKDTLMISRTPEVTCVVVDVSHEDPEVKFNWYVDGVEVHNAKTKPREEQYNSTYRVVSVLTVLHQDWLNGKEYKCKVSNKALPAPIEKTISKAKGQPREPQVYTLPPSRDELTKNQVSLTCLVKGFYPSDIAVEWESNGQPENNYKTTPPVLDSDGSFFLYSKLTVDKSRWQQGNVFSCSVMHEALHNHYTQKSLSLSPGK
Protocol: The initial screen of CA8 chimeric and humanised variants was carried out on the ProteOn XPR36 (Biorad). The method was as follows; Protein A was immobilised on a GLC chip (Biorad, Cat No: 176-5011) by primary amine coupling, CA8 variants were then captured on this surface and recombinant human BCMA (in house or commercial US Biological, B0410) materials (run 2 only)) passed over at 256, 64, 16, 4, 1 nM with a 0 nM injection (i.e. buffer alone) used to double reference the binding curves, the buffer used is the HBS-EP buffer. 50 mM NaOH was used to regenerate the capture surface. The data was fitted to the 1:1 model using the analysis software inherent to the ProteOn XPR36. Run 1 corresponds to the first screen of humanised CA8 variants (JO to J5 series) and run 2 to the second screen of humanised CA8 variants (J5 to J9 series). Both runs were carried out at 25° C.

[4] = target: Cyno in house BCMA; assay: ProteOn analysis of CA8 chimeric and humanised constructs, cyno in house BCMA; settings: Run 1, Cyno in house BCMA, 25° C.; for ka: in M-1s-1 (unit assumed); for kd: in s-1 (unit assumed)
[5] = Run 1, Human in house BCMA, ProteOn, 25° C.

B2: S307118G03 humanised H3L0: humanised S307118G03, VH H3 (SEQ ID NO:83) + VL L0 (SEQ ID NO:89) (antibody, V domains shown)
VH: QVQLVQSGAEVKKPGSSVKVSCKASGYTFTDYYMKWVRQAPGQGLEWIGEIYPNNGGITYNQKFKGRATLTVDKSTSTAYMELSSLRSEDTAVYYCANGYEFVYWGQGTLVTVSS
VL: DIQMTQSPSSLSASVGDRVTITCSASQGISNYLNWYQQKPGKAPKLLIYYTSSLHSGVPSRFSGSGSGTDFTLTISSLQPEDFATYYCQQYSKLPWTFGQGTKLEIKR
modifications: Humansed antibody sequence
KD [4]: No
ka [3, 5]: 2.86E+05
kd [3, 5]: 1.52E−03

B4: CA8 humanised J7M1: humanised CA8 anti-BCMA antibody, VH J7 (SEQ ID NO:25) + VL M1 (SEQ ID NO:33) (antibody, V domains shown)
VH: QVQLVQSGAEVKKPGSSVKVSCKASGYTFTNYWMHWVRQAPGQGLEWMGATYRGHSDTYYNQKFKGRVTITADKSTSTAYMELSSLRSEDTAVYYCARGAIYDGYDVLDNWGQGTLVTVSS
VL: DIQMTQSPSSLSASVGDRVTITCSASQDISNYLNWYQQKPGKAPKLLIYYTSNLHSGVPSRFSGSGSGTDYTLTISSLQPEDFATYYCQQYRKLPWTFGQGTKLEIKR
modifications: Humansed antibody sequence
ka [1]: 2.35E+06
kd [1]: 1.31E−04
ka [2]: 3.70E+05
kd [2]: 3.91E−04
off rate [3]: beyond the sensitivity of the assay

B5: S307118G03 humanised H2L0: humanised S307118G03, VH H2 (SEQ ID NO:81) + VL L0 (SEQ ID NO:89) (antibody, V domains shown)
VH: QVQLVQSGAEVKKPGSSVKVSCKASGYTFTDYYMKWVRQAPGQGLEWMGEIYPNNGGITYNQKFKGRVTITADKSTSTAYMELSSLRSEDTAVYYCANGYEFVYWGQGTLVTVSS
VL: DIQMTQSPSSLSASVGDRVTITCSASQGISNYLNWYQQKPGKAPKLLIYYTSSLHSGVPSRFSGSGSGTDFTLTISSLQPEDFATYYCQQYSKLPWTFGQGTKLEIKR
modifications: Humansed antibody sequence
KD [4]: No
ka [3, 5]: 3.78E+05
kd [3, 5]: 2.41E−03

B6: S307118G03 humanised H4L1: humanised S307118G03, VH H4 (SEQ ID NO:85) + VL L1 (SEQ ID NO:91) (antibody, V domains shown)
VH: QVQLVQSGAEVKKPGSSVKVSCKASGYTFTDYYMKWVRQAPGQGLEWMGEIYPNNGGITYNQKFKGRVTITADKSTSTAYMELSSLRSEDTAVYYCADGYEFVYWGQGTLVTVSS
VL: DIQMTQSPSSLSASVGDRVTITCSASQGISNYLNWYQQKPGKAPKLLIYYTSSLHSGVPSRFSGSGSGTDYTLTISSLQPEDFATYYCQQYSKLPWTFGQGTKLEIKR
modifications: Humansed antibody sequence
KD [4]: No
KD [3, 5]: No

B7: CA8 humanised J1M1: humanised CA8 anti-BCMA antibody, VH J1 (SEQ ID NO:13) + VL M1 (SEQ ID NO:33) (antibody, V domains shown)
VH: QVQLVQSGAEVKKPGSSVKVSCKASGYTFTNYWMHWVRQAPGQGLEWMGATYRGHSDTYYNQKFKGRVTITADKSTSTAYMELSSLRSEDTAVYYCARGAIYNGYDVLDNWGQGTLVTVSS
VL: DIQMTQSPSSLSASVGDRVTITCSASQDISNYLNWYQQKPGKAPKLLIYYTSNLHSGVPSRFSGSGSGTDYTLTISSLQPEDFATYYCQQYRKLPWTFGQGTKLEIKR
modifications: Humansed antibody sequence
ka [4]: 3.33E+05
kd [4]: 1.47E−04
ka [3, 5]: 2.27E+05
kd [3, 5]: 3.43E−04

B9: CA8 humanised J2M1: humanised CA8 anti-BCMA antibody, VH J2 (SEQ ID NO:15) + VL M1 (SEQ ID NO:33) (antibody, V domains shown)
VH: QVQLVQSGAEVKKPGSSVKVSCKASGYTFTNYWMHWVRQAPGQGLEWMGATYRGHSDTYYNQKFKGRVTITADKSTSTAYMELSSLRSEDTAVYYCTRGAIYNGYDVLDNWGQGTLVTVSS
VL: DIQMTQSPSSLSASVGDRVTITCSASQDISNYLNWYQQKPGKAPKLLIYYTSNLHSGVPSRFSGSGSGTDYTLTISSLQPEDFATYYCQQYRKLPWTFGQGTKLEIKR
modifications: Humansed antibody sequence
ka [4]: 2.96E+05
kd [4]: 6.46E−05
ka [3, 5]: 2.04E+05
kd [3, 5]: 1.72E−04

B10: CA8 humanised J7M2: humanised CA8 anti-BCMA antibody, VH J7 (SEQ ID NO:25) + VL M2 (SEQ ID NO:35) (antibody, V domains shown)
VH: QVQLVQSGAEVKKPGSSVKVSCKASGYTFTNYWMHWVRQAPGQGLEWMGATYRGHSDTYYNQKFKGRVTITADKSTSTAYMELSSLRSEDTAVYYCARGAIYDGYDVLDNWGQGTLVTVSS
VL: DIQLTQSPSSLSASVGDRVTITCSASQDISNYLNWYQQKPGKAPELVIYYTSNLHSGVPSRFSGSGSGTDYTLTISSLQPEDFATYYCQQYRKLPWTFGQGTKLEIKR
modifications: Humansed antibody sequence
ka [1]: 2.37E+06
kd [1]: 1.35E−04
ka [2]: 3.46E+05
kd [2]: 4.47E−04
off rate [3]: beyond the sensitivity of the assay

B11: S307118G03 humanised H2L1: humanised S307118G03, VH H2 (SEQ ID NO:81) + VL L1 (SEQ ID NO:91) (antibody, V domains shown)
VH: QVQLVQSGAEVKKPGSSVKVSCKASGYTFTDYYMKWVRQAPGQGLEWMGEIYPNNGGITYNQKFKGRVTITADKSTSTAYMELSSLRSEDTAVYYCANGYEFVYWGQGTLVTVSS
VL: DIQMTQSPSSLSASVGDRVTITCSASQGISNYLNWYQQKPGKAPKLLIYYTSSLHSGVPSRFSGSGSGTDYTLTISSLQPEDFATYYCQQYSKLPWTFGQGTKLEIKR
modifications: Humansed antibody sequence
KD [4]: No
ka [3, 5]: 3.38E+05
kd [3, 5]: 2.15E−03

Further lines, with some results ahead:

ka [1]: 1.96E+07
kd [1]: 3.50E−04
kd [2]: 2.99E−04
off rate [3]: beyond the sensitivity of the assay
B1: CA8 humanised J9M1: humanised CA8 anti-BCMA antibody, VH J9 (SEQ ID NO:29) + VL M1 (SEQ ID NO:33) (antibody, V domains shown)
VH: QVQLVQSGAEVKKPGSSVKVSCKGSGYTFTNYWMHWVRQAPGQGLEWIGATYRGHSDTYYNQKFKGRATLTADTSTSTAYMELSSLRSEDTAVYYCTRGAIYDGYDVLDNWGQGTLVTVSS
VL: DIQMTQSPSSLSASVGDRVTITCSASQDISNYLNWYQQKPGKAPKLLIYYTSNLHSGVPSRFSGSGSGTDYTLTISSLQPEDFATYYCQQYRKLPWTFGQGTKLEIKR
modifications: Humansed antibody sequence
ka [2]: 6.77E+05

kd [4]: 9.67E−05
ka [3, 5]: 2.15E+05
kd [3, 5]: 2.46E−04
B3: CA8 humanised J1M2: humanised CA8 anti-BCMA antibody, VH J1 (SEQ ID NO:13) + VL M2 (SEQ ID NO:35) (antibody, V domains shown)
VH: QVQLVQSGAEVKKPGSSVKVSCKASGYTFTNYWMHWVRQAPGQGLEWMGATYRGHSDTYYNQKFKGRVTITADKSTSTAYMELSSLRSEDTAVYYCARGAIYNGYDVLDNWGQGTLVTVSS
VL: DIQLTQSPSSLSASVGDRVTITCSASQDISNYLNWYQQKPGKAPELVIYYTSNLHSGVPSRFSGSGSGTDYTLTISSLQPEDFATYYCQQYRKLPWTFGQGTKLEIKR
modifications: Humansed antibody sequence
ka [4]: 3.19E+05

KD [4]: No
ka [3, 5]: 4.69E+05
kd [3, 5]: 2.28E−03
B8: S307118G03 humanised H3L1: humanised S307118G03, VH H3 (SEQ ID NO:83) + VL L1 (SEQ ID NO:91) (antibody, V domains shown)
VH: QVQLVQSGAEVKKPGSSVKVSCKASGYTFTDYYMKWVRQAPGQGLEWIGEIYPNNGGITYNQKFKGRATLTVDKSTSTAYMELSSLRSEDTAVYYCANGYEFVYWGQGTLVTVSS
VL: DIQMTQSPSSLSASVGDRVTITCSASQGISNYLNWYQQKPGKAPKLLIYYTSSLHSGVPSRFSGSGSGTDYTLTISSLQPEDFATYYCQQYSKLPWTFGQGTKLEIKR
modifications: Humansed antibody sequence
